Reference: patent publication US20220251233A1 (VERSEAU THERAPEUTICS, published 2022)

T1: Human CD53-CHO (full-length human CD53 over-expressed on CHO-K1 cells) (human, UniProt P19397 1-219)
T1 construct: Tetraspanin cell-surface antigen
T1 sequence: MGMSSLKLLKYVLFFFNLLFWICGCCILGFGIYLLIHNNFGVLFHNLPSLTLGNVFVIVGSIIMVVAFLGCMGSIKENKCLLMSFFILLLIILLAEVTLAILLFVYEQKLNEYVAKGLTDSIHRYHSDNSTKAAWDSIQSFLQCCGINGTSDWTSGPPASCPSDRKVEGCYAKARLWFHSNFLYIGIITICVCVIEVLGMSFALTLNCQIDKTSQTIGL


Biological target: T1, Human CD53-CHO (full-length human CD53 …)
Test: flow cytometry on CD53-CHO cells, anti-mouse IgG AF647 gMFI, 4-parameter fit
Procedure: Binding of anti-human CD53 antibodies was determined by flow cytometry for their ability to bind human CD53-CHO cells compared to parental CHO-K1 cells. All assay steps were performed in FACS buffer (phosphate buffered saline pH 7.4 supplemented with 2% fetal bovine serum). Twenty thousand cells were seeded in 384-well plates and washed twice with ice cold buffer. Cells were incubated with purified antibodies titrated 3-fold from 200 nM to 0.09 nM at 4° C. for 1 hour with gentle agitation, then washed twice with FACS buffer and incubated with anti-mouse IgG Alexa Fluor® 647 and incubated at 4° C. for 40 minutes. Cells were washed twice and resuspended in FACS buffer. Analysis was preformed on the IntelliCyt® iQue Screener and gMFI values for Alexa Fluor® 647 were generated. EC50 values were determined in GraphPad Prism8. Concentration was transformed from nM to Log 10 nM and curves were fit with a nonlinear regression of log(agonist) vs. response−Variable slope (four parameters) or Y=Bottom+(Top−Bottom)/(1+10\hat{ }((LogEC50−X)*HillSlope)). EC50 values for all anti-human CD53 antibodies can be found in Table 6, and representative binding curves can be found in FIG. 7. Binding to CD53-CHO is represented by closed symbols and binding to parental CHO-K1 cells is represented by open symbols.

Row | Binder | EC50 [nM]
1 | 2M05 (antibody, V domains shown, Murine anti-human CD53 mAb purified from subcloned hybridoma; detected with anti-mouse IgG) VH: EVQLQQSVAELVRPGASVKLSCTTSGFNIKDTYMHWVKQRPEQGLEWIGRIDPANGHTKYAPKFQDKATIAADTSSNTAYLQLSSLTSEDTAIYYCACGWDAAFAFWGQGTLVTVSA VL: DIVMTQAAPSVPVTPGESVSISCRSGKSLLHSNGDTYLYWFLQRPGQSPQLLIYRMSNLASGVPDRFSGSGSGTAFTLRISRVEAEDVGIYYCLQHLEFPLTFGAGTKLELK | 4.6
2 | 5G03 (antibody, V domains shown, Murine anti-human CD53 mAb purified from subcloned hybridoma; detected with anti-mouse IgG) VH: EVQLQQSGAELVRPGASVKLSCTASGFNIKDDFMHWVRQRPDQGLEYIGRFDPAIGNAKYAPKFQDKATLTADTSSNTAYLHLSSLTSEDTAVYYCAIFYAYWGQGTLVTVSA VL: DVVMTQTPLSLPVSLGDQASISCRSSQSLVHSNRNTYLHWYLQKPGQSPKLLIYKVSNRFSGVPDRFSGSGSGTDFTLKISRVEAEDLGVYFCSQSTHVPFTFGSGTKLEIK | 9.1
3 | 5K16 (antibody, V domains shown, Murine anti-human CD53 mAb purified from subcloned hybridoma; detected with anti-mouse IgG) VH: EVQLQQSVAELVRPGASVKLSCTASGFNIKNTYMYWVKQRPEQGLEWIGRIDPANGHTKCAPKFQGKATITADTSSNTAYLQLSSLTSEDSAIFYCARGEDYAMDYWGQGTSVTVSS VL: DIVMTQSAPSVPVTPGESVSISCRSSKSLLHSNGDTYLYWFLQRPGQSPQVLIYRMSNLASGVPDRFSGSGSGTAFTLRISRVEAEDVGVYYCMQLLEYPFTFGSGTKLEIK | 5.6
4 | 4J16 (antibody, V domains shown, Murine anti-human CD53 mAb purified from subcloned hybridoma; detected with anti-mouse IgG) VH: EVQLQQSGAELVRPGASVRLSCTASGFNIKDDFLHWVNQRPEQGLEWIGRIDPANGNTKYAPKFRDRATITADTSSNTAYLQLSSLTSEDTAVYYCVRVYGDYWGQGTTLTVSS VL: DIVMTQAAFSNPVTLGTSASISCRSSKSLLHSNGITYLYWYLQKPGQSPQLLIYQMSNLASGVPDRFSSSGSGTDFTLRISRVEAEDVGVYYCAQNLELPLTFGAGTKLELK | 1.6
5 | 3G02 (antibody, V domains shown, Murine anti-human CD53 mAb purified from subcloned hybridoma; detected with anti-mouse IgG) VH: EVQLQQSVAELVRPGASVKLSCTASGFNIKNTYMHWVKQRPEQGLEWIGRIDPAIGYTEYAPKFQGKATITADTSSNTAWLQLSSLTSEDTAIYYCAGGGPYYAMDYWGRGTSVTVSS VL: DIVMTQAAPSIPVTPGESVSISCRSSKSLLHSNGDTYLYWFLQRPGQSPQVLIYRMSNLASGVPARFSGSGSGTAFTLRISRVEAEDVGVYYCMQHLEYPFTFGAGTKLELK | ~7
6 | 4C22 (antibody, V domains shown, Murine anti-human CD53 mAb purified from subcloned hybridoma; detected with anti-mouse IgG) VH: EVQLQQSGAELVRPGASVKLSCTASGFNIKDDFMNWVKQRPEQGLEWIGRIDPANGHTKYAPKFQDKATITADTSSNTAFLHLSSLTSEDTAVYFCARWIPPYWGQGTLVTVSA VL: DIVMTQAAPSVPVTPGESASISCRSSKSLLHSNGDTYLYWFLQRPGQSPQLLIYRMSNLASGVPDRFSGSGSGTAFTLRISRVEAEDVGVYYCMQLLEYPYTFGGGTKLEIK | ~7
7 | 4G15 (antibody, V domains shown, Murine anti-human CD53 mAb purified from subcloned hybridoma; detected with anti-mouse IgG) VH: EVQLQQSGAELVRPGASVKLSCTTSGFNIKDDFMHWVKQRPEQGLEWIGWIDPENGNTQYASKFQGKATITADTSSNTAYLQLSSLTSEDTAVYYCTSYYEETMDYWGQGTSVTVSS VL: DIVMTQAAFSNPVTLGTSASISCSSSKSLLHSNGITYLYWYLQRPGQSPQLLIYRMSNLASGVPDRFSGSGSGTDFTLRISRVEAEDVGVYYCAQMLERPRTFGGGTKLEIK | 3.8
8 | 4K13 (antibody, V domains shown, Murine anti-human CD53 mAb purified from subcloned hybridoma; detected with anti-mouse IgG) VH: EVQLQQSVAELVRPGASVKLSCTASGLNIKNTYMNWVKQRPEQGLEWIGRIDPANGYTKYAPKFQGKTTITAATSSNTAFLQLSSLTSGDTAIYYCTTAVVATGDYWGQGTTLTVSS VL: DIVMTQAAFSNPVTLGTSASISCRSSKSLLHSDGITYLYWFLQRPGQSPQLLIYRMSNLASGVPDRFSGSGSGTDFTLRISRVEAEDVGVYYCAQMLEFPFTFGTGTKLEIK | ~1
9 | 4L19 (antibody, V domains shown, Murine anti-human CD53 mAb purified from subcloned hybridoma; detected with anti-mouse IgG) VH: QVQLQQSGAELMKPGASVKLSCKATGYTFTGYWIEWVKQRPGHGLEWIGEISSGGYNTNYNKKFKGKATFTVDTSSNTAYMQLSSLTTEDSAIYYCTRDSNDYYFDYWGQGTTLTVSS VL: DVVMTQTPLTLSVTIGQPASISCKSSQSLLHRNGKTHLNWLLQRPGQSPKLLIYLVSKLESGVPDRFSGSGSGTDFTLRISRVEAEDLGVYYCLQVTHFPYTFGSGTKLEIK | 4.3
